The record followed here is paper PMC9636186 (Nature Communications, 2022).

The target of this test is ItcR itaconate-binding domain (IBD) (ItcR truncation of residues 80-292). Briefly: SEC-MALS.

“ItcR itaconate-binding domain (IBD) (ItcR truncation of residues 80-292) (domain or fragment)” yielded a stoichiometry N of 2.
